Results published in IntAct's records for PubMed 24591568.

B1: Rab11 family-interacting protein 5 (Homo sapiens), Q9BXF6 (parent)
chain: MALVRGAEPAAGPSRWLPTHVQVTVLRARGLRGKSSGAGSTSDAYTVIQVGREKYSTSVVEKTHGCPEWREECSFELPPGALDGLLRAQEADAGPAPWAASSAAACELVLTTMHRSLIGVDKFLGQATVALDEVFGAGRAQHTQWYKLHSKPGKKEKERGEIEVTIQFTRNNLSASMFDLSMKDKPRSPFSKIRDKMKGKKKYDLESASAILPSSAIEDPDLGSLGKMGKAKGFFLRNKLRKSSLTQSNTSLGSDSTLSSASGSLAYQGPGAELLTRSPSRSSWLSTEGGRDSAQSPKLFTHKRTYSDEANQMRVAPPRALLDLQGHLDAASRSSLCVNGSHIYNEEPQGPVRHRSSISGSLPSSGSLQAVSSRFSEEGPRSTDDTWPRGSRSNSSSEAVLGQEELSAQAKVLAPGASHPGEEEGARLPEGKPVQVATPIVASSEAVAEKEGARKEERKPRMGLFHHHHQGLSRSELGRRSSLGEKGGPILGASPHHSSSGEEKAKSSWFGLREAKDPTQKPSPHPVKPLSAAPVEGSPDRKQSRSSLSIALSSGLEKLKTVTSGSIQPVTQAPQAGQMVDTKRLKDSAVLDQSAKYYHLTHDELISLLLQRERELSQRDEHVQELESYIDRLLVRIMETSPTLLQIPPGPPK
partner: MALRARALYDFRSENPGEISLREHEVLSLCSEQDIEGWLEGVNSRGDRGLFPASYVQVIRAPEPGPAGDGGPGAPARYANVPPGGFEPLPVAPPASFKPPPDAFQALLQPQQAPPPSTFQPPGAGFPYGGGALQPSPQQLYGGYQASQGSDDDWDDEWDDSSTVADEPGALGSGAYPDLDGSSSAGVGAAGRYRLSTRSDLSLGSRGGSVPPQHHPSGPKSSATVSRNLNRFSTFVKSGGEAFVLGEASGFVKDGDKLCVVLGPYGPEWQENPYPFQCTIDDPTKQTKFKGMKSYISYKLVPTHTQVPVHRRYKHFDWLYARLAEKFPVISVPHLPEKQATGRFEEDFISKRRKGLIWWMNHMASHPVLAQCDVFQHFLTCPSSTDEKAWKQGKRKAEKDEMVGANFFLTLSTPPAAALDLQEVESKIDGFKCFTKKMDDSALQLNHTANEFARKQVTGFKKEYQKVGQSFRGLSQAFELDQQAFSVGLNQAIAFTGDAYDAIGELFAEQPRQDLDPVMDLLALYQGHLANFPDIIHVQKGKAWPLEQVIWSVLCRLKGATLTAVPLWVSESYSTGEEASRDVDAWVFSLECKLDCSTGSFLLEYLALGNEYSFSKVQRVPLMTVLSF
B2: Rab11 family-interacting protein 5 (Homo sapiens), Q9BXF6 (parent)
chain: B1 chain

Variants of: B1
Settings: with snx18_human SNX18, Q96RF0

| effect of a mutation on the interaction | Variant |
| --- | --- |
| increasing interaction | T276A |

Variants of: B1
Settings: with snx18_human SNX18, Q96RF0
Remark: another data set of the same source

| effect of a mutation on the interaction | Variant |
| --- | --- |
| decreasing interaction | T276D |

Variants of: B2
Settings: with kif3a_human KIF3A

| effect of a mutation on the interaction | Variant |
| --- | --- |
| increasing interaction | T276A |

Variants of: B2
Settings: with kif3a_human KIF3A
Remark: another data set of the same source

| effect of a mutation on the interaction | Variant |
| --- | --- |
| increasing interaction | T276D |
